This is an account of results in PMC7261414, “A complex comprising C15ORF41 and Codanin-1: the products of two genes mutated in congenital dyserythropoietic anaemia type I (CDA-I)” (Biochemical Journal, 2020).

The target of the test is T1, Codanin-1-C (fragment of Codanin-1, amino acids P800-S1227) (human, UniProt Q8IWY9 800-1227).
T1 construct: Codanin-1, amino acids P800-S1227; Plasmid pET28a 6His z-basic TEV CDAN1^P800-S1227; the text speaks only of the hexahistidine tag being cleaved with TEV; that z-basic goes with it follows from the order in the plasmid's name; also called CDAN1^P800-S1227; source: E. coli, purified (Ni2+-NTA agarose, tag cleaved with His-TEV protease); not shown: His6, N-terminal, cleaved; z-basic, N-terminal, …
T1 sequence (looked up): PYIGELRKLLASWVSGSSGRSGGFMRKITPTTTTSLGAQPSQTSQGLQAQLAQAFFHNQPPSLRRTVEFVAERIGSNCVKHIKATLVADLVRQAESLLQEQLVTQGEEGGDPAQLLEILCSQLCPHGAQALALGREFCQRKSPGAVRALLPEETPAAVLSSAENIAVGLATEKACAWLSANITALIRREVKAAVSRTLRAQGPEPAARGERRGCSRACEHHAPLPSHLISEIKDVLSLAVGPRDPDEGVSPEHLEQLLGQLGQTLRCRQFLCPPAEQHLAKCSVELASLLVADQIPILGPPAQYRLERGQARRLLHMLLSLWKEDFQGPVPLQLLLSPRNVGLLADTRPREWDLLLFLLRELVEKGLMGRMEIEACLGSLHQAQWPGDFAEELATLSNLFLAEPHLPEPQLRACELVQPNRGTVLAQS
Kind of test: pull-down + SEC; purified His6-C15ORF41 re-bound to Ni2+-NTA agarose, excess of purified Codanin-1-C passed over, eluted with 400 mM imidazole, Superdex 200 16/60 in 50 mM Tris pH 7.5, 500 mM NaCl, 5% glycerol, 0.5 mM TCEP. The note with it: both partners purified.

B1: His6-C15ORF41 bearing the solubilising mutations V18M, C223S and W237R (natural protein, human, UniProt Q9Y2V0 1-281, looked up)
chain: MILTKAQYDEIAQCLVSMPPTRQSLRKLKQRFPSQSQATLLSIFSQEYQKHIKRTHAKHHTSEAIESYYQRYLNGVVKNGAAPVLLDLANEVDYAPSLMARLILERFLQEHEETPPSKSIINSMLRDPSQIPDGVLANQVYQCIVNDCCYGPLVDCIKHAIGHEHEVLLRDLLLEKNLSFLDEDQLRAKGYDKTPDFILQVPVAVEGHIIHWIESKASFGDESSHHAYLHDQFWSYRNRFGPGLVIYWYGFIQELDCNRERGILLKACFPTNIVTLCHSIA
notes: C15ORF41 (CDIN1) with the extra mutations V18M, C223S and W237R; Plasmid pNIC28 Bsa4 6His Tev C15ORF41^(V18M C223S W237R), a gift from J. Newman (SGC Oxford); preparations held bacterial ArnA as a contaminant; also called C15ORF41^(V18M C223S W237R); source: E. coli, purified (Ni2+-NTA agarose, dialysis); not shown: His6, N-terminal, kept
As for B1, the binding result is “binds”.
